Data as given in patent US20150344570A1 (published 2015).
Residue numbers refer to the chain shown, from its start. Names may count otherwise.

T1: FcγRIIa H (FcγRIIa, allotype with His at position 131), extracellular domain with C-terminal His tag (human, UniProt P12318 34-217)
T1 construct: extracellular domain; also called FcgRIIa H; 2aH; not shown: His tag at the C terminus
T1 sequence (looked up): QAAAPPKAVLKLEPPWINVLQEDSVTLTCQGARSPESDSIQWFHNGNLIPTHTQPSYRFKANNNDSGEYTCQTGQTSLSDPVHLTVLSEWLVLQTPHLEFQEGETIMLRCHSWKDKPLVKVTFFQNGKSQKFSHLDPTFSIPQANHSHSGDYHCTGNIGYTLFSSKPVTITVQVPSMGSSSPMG

T2: FcγRIIb, extracellular domain with C-terminal His tag (human, UniProt P31994 43-217)
T2 construct: extracellular domain; also called FcgRIIb; 2b; not shown: His tag at the C terminus
T2 sequence (looked up): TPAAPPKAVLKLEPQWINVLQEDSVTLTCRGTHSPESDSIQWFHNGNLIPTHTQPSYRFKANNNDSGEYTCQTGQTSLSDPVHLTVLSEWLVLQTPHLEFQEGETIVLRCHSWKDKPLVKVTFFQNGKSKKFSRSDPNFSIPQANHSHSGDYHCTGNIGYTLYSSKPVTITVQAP

T3: FcgRIIb (FcγRIIb) extracellular domain with C-terminal His tag (human, UniProt P31994 43-217)
T3 construct: extracellular domain; not shown: His tag attached to the C terminus
T3 sequence (looked up): T2 sequence (looked up)

T4: FcγRIIa H (human FcγRIIa, allotype H131, extracellular domain with C-terminal His tag) (human, UniProt P12318 34-217)
T4 construct: extracellular domain; Soluble extracellular domain expressed in FreeStyle293 cells; used as analyte in Biacore; also called FcgRIIa H; FcγRIIa type H; not shown: His tag attached to the C terminus
T4 sequence (looked up): T1 sequence (looked up)

B1: GpH7-A5/GpH7-B3 variant N325_08L/GpL16-k0 (antibody, human IgG1, kappa)
heavy 1: not shown
heavy 2: not shown
light: DIVMTQSPLSLPVTPGEPASISCQASESLVHSNRNTYLHWYLQKPGQSPQLLIYKVSNRFSGVPDRFSGSGSGTDFTLKISRVEAEDVGVYYCSQNTHVPPTFGQGTKVEIERTVAAPSVFIFPPSDEQLKSGTASVVCLLNNFYPREAKVQWKVDNALQSGNSQESVTEQDSKDSTYSLSSTLTLSKADYEKHKVYACEVTHQGLSSPVTKSFNRGEC
notes: Heterodimerized anti-glypican-3 IgG1; mutation in one H chain only; also called He Ab
B2: GpH7-A5/GpH7-B3 variant N325_09D/GpL16-k0 (antibody, human IgG1, kappa)
heavy 1: not shown
heavy 2: not shown
light: B1 light
notes: as for B1
B3: GpH7-A5/GpH7-B3 variant N325_10E/GpL16-k0 (antibody, human IgG1, kappa)
heavy 1: not shown
heavy 2: not shown
light: B1 light
notes: as for B1
B4: H240-Kn061/H240-Hl071/L73-k0 variant with W236Y in H240-Kn061 (antibody, human IgG1, kappa)
heavy 1: QDQLVQSGAEVKKPGASVKVSCKASGFNIKDTYIQWVRQAPGQGLEWMGRIDPLRKQTKYREKFEGRVTITADTSTNTAYMELSSLRSEDTAVYYCVRSGREFDYWGQGTLVTVSSASTKGPSVFPLAPSSKSTSGGTAALGCLVKDYFPEPVTVSWNSGALTSGVHTFPAVLQSSGLYSLSSVVTVPSSSLGTQTYICNVNHKPSNTKVDKKVEPKSCDKTHTCPPCPAPEYYYGPSVFLFPPKPKDTLMISRTPEVTCVVVDVSDEDPEVKFNWYVDGVEVHNAKTKPREEQYNATYRVVSVLTVLHQDWLNGKEYKCKVSNKALPAPIEKTISKAKGQPREPQVCTLPPSRDELTKNQVSLWCLVKGFYPSDIAVEWESNGQPENNYKTTPPVLDSDGSFFLYSKLTVDKSRWQQGNVFSCSVMHEALHNHYTQKSLSLSP
heavy 2: QDQLVQSGAEVKKPGASVKVSCKASGFNIKDTYIQWVRQAPGQGLEWMGRIDPLRKQTKYREKFEGRVTITADTSTNTAYMELSSLRSEDTAVYYCVRSGREFDYWGQGTLVTVSSASTKGPSVFPLAPSSKSTSGGTAALGCLVKDYFPEPVTVSWNSGALTSGVHTFPAVLQSSGLYSLSSVVTVPSSSLGTQTYICNVNHKPSNTKVDKKVEPKSCDKTHTCPPCPAPELLGGPSVFLFPPKPKDTLMISRTPEVTCVVVDVSHEDPEVKFNWYVDGVEVHNAKTKPREEQYNSTYRVVSVLTVLHQDWLNGKEYKCKVSNDALPMPIEETISKAKGQPREPQVYTLPPSRCELTKNQVSLSCAVKGFYPSDIAVEWESNGQPENNYKTTPPVLDSDGSFFLVSKLTVDKSRWQQGNVFSCSVMHEALHNHYTQKSLSLSP
light: DIQMTQSPSSLSASVGDRVTITCRASQDIHKYIAWYQQKPGQAPRLLIQYTSTLQPGVPSRFSGSGSGTDYTFTISSLQPEDIATYYCLQYEQLRTFGGGTKVEIKRTVAAPSVFIFPPSDEQLKSGTASVVCLLNNFYPREAKVQWKVDNALQSGNSQESVTEQDSKDSTYSLSSTLTLSKADYEKHKVYACEVTHQGLSSPVTKSFNRGEC
notes: anti-epiregulin heterodimerized IgG1; also called H240-Kn061 W236Y
B5: H240-Kn061/H240-Hl071/L73-k0 variant with Y234A in H240-Kn061 (antibody, human IgG1, kappa)
heavy 1: B4 heavy 1 with Y233A, Y235W
heavy 2: B4 heavy 2
light: B4 light
notes: anti-epiregulin heterodimerized IgG1; also called H240-Kn061 Y234A
B6: H240-Kn061/H240-Hl071/L73-k0 variant with Y234G in H240-Kn061 (antibody, human IgG1, kappa)
heavy 1: B4 heavy 1 with Y233G, Y235W
heavy 2: B4 heavy 2
light: B4 light
notes: anti-epiregulin heterodimerized IgG1; also called H240-Kn061 Y234G
B7: H240-Kn061/H240-Hl071/L73-k0 variant with Y234H in H240-Kn061 (antibody, human IgG1, kappa)
heavy 1: B4 heavy 1 with Y233H, Y235W
heavy 2: B4 heavy 2
light: B4 light
notes: anti-epiregulin heterodimerized IgG1; also called H240-Kn061 Y234H
B8: GpH7-B3 variant T335_02A/GpL16-k0 (homodimerized antibody, Ho Ab) (antibody, human IgG1, kappa)
heavy: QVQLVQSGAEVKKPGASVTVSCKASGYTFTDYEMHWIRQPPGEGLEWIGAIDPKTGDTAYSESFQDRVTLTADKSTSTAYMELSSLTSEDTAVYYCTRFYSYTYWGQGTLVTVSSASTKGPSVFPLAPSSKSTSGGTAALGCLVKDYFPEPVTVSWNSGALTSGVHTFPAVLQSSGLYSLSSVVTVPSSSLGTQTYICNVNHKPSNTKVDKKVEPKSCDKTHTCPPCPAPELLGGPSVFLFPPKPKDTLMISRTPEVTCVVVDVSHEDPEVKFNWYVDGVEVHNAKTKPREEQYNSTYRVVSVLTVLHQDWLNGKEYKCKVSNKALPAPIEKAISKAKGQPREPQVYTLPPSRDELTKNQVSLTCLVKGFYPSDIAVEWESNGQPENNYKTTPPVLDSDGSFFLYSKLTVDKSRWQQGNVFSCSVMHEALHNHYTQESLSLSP
light: B1 light
notes: Anti-glypican-3 IgG1 (G1d with K439E); the alteration stands in both H chains; also called T335_02A Ho Ab; T335A in both H chains
B9: GpH7-B3 variant T335_04F/GpL16-k0 (homodimerized antibody, Ho Ab) (antibody, human IgG1, kappa)
heavy: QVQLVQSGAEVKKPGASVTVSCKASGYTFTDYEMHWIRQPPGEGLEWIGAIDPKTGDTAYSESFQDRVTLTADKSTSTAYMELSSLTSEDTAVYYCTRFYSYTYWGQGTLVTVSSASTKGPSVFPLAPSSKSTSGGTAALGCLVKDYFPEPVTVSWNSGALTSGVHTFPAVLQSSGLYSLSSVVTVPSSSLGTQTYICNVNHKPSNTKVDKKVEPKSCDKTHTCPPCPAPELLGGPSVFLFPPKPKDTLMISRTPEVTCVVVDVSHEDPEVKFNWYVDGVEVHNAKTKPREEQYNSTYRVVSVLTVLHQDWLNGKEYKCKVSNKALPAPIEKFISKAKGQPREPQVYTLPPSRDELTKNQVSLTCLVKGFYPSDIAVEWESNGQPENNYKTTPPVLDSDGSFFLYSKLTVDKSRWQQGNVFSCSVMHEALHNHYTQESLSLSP
light: B1 light
notes: Anti-glypican-3 IgG1 (G1d with K439E); the alteration stands in both H chains; EU numbering; also called T335_04F Ho Ab; T335F in both H chains
B10: GpH7-B3 variant T335_05P/GpL16-k0 (homodimerized antibody, Ho Ab) (antibody, human IgG1, kappa)
heavy: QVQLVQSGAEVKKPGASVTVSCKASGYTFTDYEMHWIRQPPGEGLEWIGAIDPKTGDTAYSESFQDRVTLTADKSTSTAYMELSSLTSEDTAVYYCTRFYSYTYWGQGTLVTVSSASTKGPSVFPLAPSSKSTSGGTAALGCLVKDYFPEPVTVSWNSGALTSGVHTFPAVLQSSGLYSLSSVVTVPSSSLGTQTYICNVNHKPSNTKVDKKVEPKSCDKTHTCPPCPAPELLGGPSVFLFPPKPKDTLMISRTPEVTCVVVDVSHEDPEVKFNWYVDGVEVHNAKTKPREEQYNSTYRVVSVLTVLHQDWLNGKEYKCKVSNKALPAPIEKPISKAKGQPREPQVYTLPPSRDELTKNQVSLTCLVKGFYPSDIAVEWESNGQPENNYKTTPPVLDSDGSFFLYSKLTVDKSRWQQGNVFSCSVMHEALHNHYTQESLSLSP
light: B1 light
notes: Anti-glypican-3 IgG1 (G1d with K439E); the alteration stands in both H chains; EU numbering; also called T335_05P Ho Ab; T335P in both H chains
B11: GpH7-B3 variant T335_06M/GpL16-k0 (homodimerized antibody, Ho Ab) (antibody, human IgG1, kappa)
heavy: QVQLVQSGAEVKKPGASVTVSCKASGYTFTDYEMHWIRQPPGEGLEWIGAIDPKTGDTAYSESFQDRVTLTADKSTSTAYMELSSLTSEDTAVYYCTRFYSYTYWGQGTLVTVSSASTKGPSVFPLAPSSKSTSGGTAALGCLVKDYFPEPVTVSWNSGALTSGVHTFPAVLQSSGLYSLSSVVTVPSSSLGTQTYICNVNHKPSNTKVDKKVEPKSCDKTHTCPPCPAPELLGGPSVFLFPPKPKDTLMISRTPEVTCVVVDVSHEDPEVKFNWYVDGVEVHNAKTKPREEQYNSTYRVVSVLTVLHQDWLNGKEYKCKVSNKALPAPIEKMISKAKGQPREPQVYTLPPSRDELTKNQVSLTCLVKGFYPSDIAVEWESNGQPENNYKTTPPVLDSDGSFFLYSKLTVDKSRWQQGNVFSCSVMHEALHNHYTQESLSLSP
light: B1 light
notes: Anti-glypican-3 IgG1 (G1d with K439E); the alteration stands in both H chains; EU numbering; also called T335_06M Ho Ab; T335M in both H chains
B12: GpH7-B3 variant T335_08L/GpL16-k0 (homodimerized antibody, Ho Ab) (antibody, human IgG1, kappa)
heavy: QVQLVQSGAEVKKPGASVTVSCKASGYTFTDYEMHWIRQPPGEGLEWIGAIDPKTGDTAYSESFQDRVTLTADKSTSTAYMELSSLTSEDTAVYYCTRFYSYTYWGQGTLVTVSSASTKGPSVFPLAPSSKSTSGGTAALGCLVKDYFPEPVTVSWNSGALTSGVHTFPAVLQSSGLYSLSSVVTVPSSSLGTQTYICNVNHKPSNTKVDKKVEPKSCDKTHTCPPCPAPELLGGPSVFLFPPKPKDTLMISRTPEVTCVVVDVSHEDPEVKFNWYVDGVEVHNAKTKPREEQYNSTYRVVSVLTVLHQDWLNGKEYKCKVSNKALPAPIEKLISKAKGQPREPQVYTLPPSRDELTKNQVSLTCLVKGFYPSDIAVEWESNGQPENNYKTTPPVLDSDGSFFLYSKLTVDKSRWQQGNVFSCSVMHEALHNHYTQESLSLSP
light: B1 light
notes: Anti-glypican-3 IgG1 (G1d with K439E); the alteration stands in both H chains; EU numbering; also called T335_08L Ho Ab; T335L in both H chains

Target: T1, FcγRIIa H (FcγRIIa, allotype with His …)
Experiment: SPR (Biacore), relative binding vs GpH7-A5/GpH7-B3/GpL16-k0

First: B1
Second: B2
The He/Con_2aH of the first is lower: 52 % of HeCon Ab (=100) for the first, 53.1 % of HeCon Ab (=100) for the second.

For B3, the He/Con_2aH was 52.5 % of HeCon Ab (=100).

Target: T2, FcγRIIb, extracellular domain with …
Experiment: as above

Compared with B1, B2 is lower in He/Con_2b: 197 % of HeCon Ab (=100) for the first, 124 % of HeCon Ab (=100) for the second.

B3 was tested, and the He/Con_2b was 95.9 % of HeCon Ab (=100).

Target: T3, FcgRIIb (FcγRIIb) extracellular domain …
Experiment: SPR (Biacore); KD of H240-Kn061/H240-Hl071/L73-k0 divided by KD of the variant
Method: (§1) The antibodies were assessed for the binding to each FcgR. […] The resultant value was defined as relative KD, and used as an assessment indicator.
(§2) Analysis of interaction between objective antibody and the FcγR was carried out using Biacore T100 (GE Healthcare), Biacore T200, Biacore A100, and Biacore 4000. HBS-EP+ (GE Healthcare) was used as the running buffer, and the measurement temperature was set to 25° C. Chips produced by immobilizing the antigen peptide by the amine coupling method to a Series S sensor Chip CM5 (GE Healthcare), chips produced by allowing preliminarily biotinylated antigen peptides to interact with and immobilize onto a Series S Sensor Chip SA (certified) (GE Healthcare), chips produced by immobilizing Protein L (ACTIGEN, BioVision) to Series S Sencor Chip CM5 (GE Healthcare), or chips produced by immobilizing Protein A/G (Thermo Scientific) to Series S Sencor Chip CM5 (GE Healthcare) were used. Antibodies of interest were captured onto these chips, and allowed to interact to each FcγR diluted with running buffer.

Going from B4 to B5, the “relative KD” value rises from 0.8 ratio to 1.2 ratio.

Compared with B6, B7 is higher in “relative KD” value: 0.9 ratio for the first, 1.3 ratio for the second.

Target: T5, FcgRIIIa V (FcγRIIIa type V) extracellular domain with C-terminal His tag (human, UniProt P08637 17-208)
T5 construct: extracellular domain; also called FcγRIIIa V; not shown: His tag attached to the C terminus
Experiment: as above
Method: as §1, §2

T5 sequence (P08637 17-208 F176V limits assumed): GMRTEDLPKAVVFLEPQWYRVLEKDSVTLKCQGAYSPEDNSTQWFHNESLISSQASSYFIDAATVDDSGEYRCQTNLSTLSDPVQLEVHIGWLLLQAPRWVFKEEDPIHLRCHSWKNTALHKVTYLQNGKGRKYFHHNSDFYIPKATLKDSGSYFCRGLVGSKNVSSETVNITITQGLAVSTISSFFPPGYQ

Compared with B4, B5 is lower in “relative KD” value: 1.2 ratio for the first, 0.9 ratio for the second.

B6 and B7 are the same in “relative KD” value: 0.9 ratio for the first, 0.9 ratio for the second.

Target: T6, FcgRIIIa F (FcγRIIIa type F) extracellular domain with C-terminal His tag (human, UniProt P08637 17-208)
T6 construct: extracellular domain; also called FcγRIIIa F; 3aF; not shown: His tag attached to the C terminus
Experiment: as above
Method: as §1, §2

T6 sequence (P08637 17-208): as the sequence (P08637 17-208 F176V limits assumed) above, with V160F counted along it

B4 and B5 are the same in “relative KD” value: 0.8 ratio for the first, 0.8 ratio for the second.

B6 and B7 are the same in “relative KD” value: 0.8 ratio for the first, 0.8 ratio for the second.

Target: T4, FcγRIIa H (human FcγRIIa, allotype …)
Experiment: SPR (Biacore T100), antibody captured on antigen-peptide chip, FcγRIIa H as analyte; relative binding
Method: Analysis of interaction between objective antibody and the FcγR was carried out using Biacore T100 (GE Healthcare). HBS-EP+ (GE Healthcare) was used as the running buffer, and the measurement temperature was set to 25° C. Chips produced by immobilizing the antigen peptide by the amine coupling method to a Series S Sencor Chip CM5 (GE Healthcare), or alternatively, chips produced by allowing preliminarily biotinylated antigen peptides to interact with and immobilize onto a Series S Sensor Chip SA (certified) (GE Healthcare) were used. Antibodies of interest were captured onto an antigen peptide-immobilized chip, and allowed to interact to each FcγR diluted with running buffer. To regenerate and repeatedly use the chip, the antibodies captured on the chip were washed off by reacting 10 mM glycine-HCl, pH 1.5.

Compared with B8, B9 is higher in Ho/Con_2aH: 103 relative binding activity (control homodimerized antibody GpH7-B3/GpL16-k0 = 100) for the first, 104 relative binding activity (control homodimerized antibody GpH7-B3/GpL16-k0 = 100) for the second.

First: B10
Second: B11
The Ho/Con_2aH of the first is higher: 115 relative binding activity (control homodimerized antibody GpH7-B3/GpL16-k0 = 100) for the first, 106 relative binding activity (control homodimerized antibody GpH7-B3/GpL16-k0 = 100) for the second.

For B12, the Ho/Con_2aH was 106 relative binding activity (control homodimerized antibody GpH7-B3/GpL16-k0 = 100).

Target: T1, FcγRIIa H (FcγRIIa, allotype with His …)
Experiment: SPR (Biacore); He/Con_2aH divided by He/Con_2b (FcγRIIb)

Compared with B1, B2 is higher in “He_2aH/2b (IIaH/IIb)” value: 0.26 ratio for the first, 0.43 ratio for the second.

B3 was tested, and the “He_2aH/2b (IIaH/IIb)” value was 0.55 ratio.
